The values that follow come from patent US20190367560A1.

Assay [1] has as its target IgG. Nature of the assay: SPR (BIAcore T200), equilibrium value.
The target of assay [2] is IgG. Nature of the assay: SPR (BIAcore T200), 1:1 binding fit.
Assay [3] deals with human serum-derived γ-globulin (Wako) (human). The assay is described as follows: dynamic binding capacity at 10% breakthrough; Protein A support; residence time 5 min.
Assay [4] has the same target. The assay is described as follows: dynamic binding capacity at 10% breakthrough; Protein A support; residence time 1 min.
Assay [5] has the same target. Nature of the assay: dynamic binding capacity at 10% breakthrough; Protein A support; residence time 2.5 min.
For assay [6] the target is unchanged. The assay is described as follows: dynamic binding capacity at 10% breakthrough; 1 mg peptide on 1-mL column; residence time 5 min.
The target is the same in assay [7]. The assay is described as follows: DBC at 1 mL/min, 1 mg peptide column, after 0 cycles of 0.1 M NaOH washing.
Assay [8] has the same target. The assay is described as follows: dynamic binding capacity at 10% breakthrough; 1 mg peptide on 1-mL column; residence time 1 min.
The target is the same in assay [9]. Nature of the assay: DBC at 1 mL/min, 1 mg peptide column, after 5 cycles of 0.1 M NaOH washing.
For assay [10] the target is unchanged. Nature of the assay: DBC at 1 mL/min, 1 mg peptide column, after 1 cycle of 0.1 M NaOH washing.
The target is the same in assay [11]. The assay is described as follows: DBC at 1 mL/min, 1 mg peptide column, after 2 cycles of 0.1 M NaOH washing.
Assay [12] has the same target. Nature of the assay: DBC at 1 mL/min, 1 mg peptide column, after 4 cycles of 0.1 M NaOH washing.
Assay [13] shares this target. The assay is described as follows: dynamic binding capacity at 10% breakthrough; 10 mg peptide on 1-mL column; residence time 2.5 min.
For assay [14] the target is unchanged. The assay is described as follows: dynamic binding capacity at 10% breakthrough; 10 mg peptide on 1-mL column; residence time 1 min.
Assay [15] has the same target. Nature of the assay: dynamic binding capacity at 10% breakthrough; 4 mg peptide on 1-mL column; residence time 5 min.
The target is the same in assay [16]. Nature of the assay: dynamic binding capacity at 10% breakthrough; 4 mg peptide on 1-mL column; residence time 2.5 min.
Assay [17] has the same target. The assay is described as follows: DBC at 1 mL/min, 1 mg peptide column, after 3 cycles of 0.1 M NaOH washing.
The target is the same in assay [18]. The assay is described as follows: dynamic binding capacity at 10% breakthrough; 1 mg peptide on 1-mL column; residence time 2.5 min.
For assay [19] the target is unchanged. The assay is described as follows: dynamic binding capacity at 10% breakthrough; 10 mg peptide on 1-mL column; residence time 5 min.
The target is the same in assay [20]. The assay is described as follows: dynamic binding capacity at 10% breakthrough; 4 mg peptide on 1-mL column; residence time 1 min.
Assay [21] deals with IgG. The assay is described as follows: SPR as in Example 1 (BIAcore T200, IgG immobilized).

Bridges are numbered along the chain shown (N, C = ends). Primed or numbered codes have the meaning given here. Where no end group is shown, it is not given here. [ ]: non-standard residue; d: D form. The star is where a group is joined. Biotin = O=C1N[C@H]2[C@H](CS[C@H]2CCCCC(=O)*)N1; Fmoc = O=C(OCC1c2ccccc2-c2ccccc21)*; PEG4′ = not defined here

As to “GPDCAYH(Xaa1)…-NH2 (SEQ ID NO:2, wherein Xaa1 is acetylated lysine), N-terminus blocked with biotinylated PEG4, intramolecular S-S bond (peptide)”, the dissociation constant Kd with IgG [1] is 2800 nM; with IgG [2], 2700 nM.
Consider “GPDCAYH(Xaa1)…-NH2 (SEQ ID NO:2, wherein Xaa1 is lysine), N-terminus blocked with biotinylated PEG4, intramolecular S-S bond (peptide)”, for which the Kd worked out at 131 nM with IgG [1] and 156 nM with IgG [2].
In the case of “commercially available Protein A support MabSelect (GE Healthcare) (from UniProt P38507 37-327)”, the values for the DBC in [3], in assay [4] and in [5] were 43.7, 10 and 24.3, respectively.

B1: Peptide a: N-terminally PEG4-modified and C-terminally amidated GPDCAYH(Xaa1)… (SEQ ID NO:2, Xaa1 arginine), cysteines cross-linked with … (peptide)
peptide: [PEG4′]GPDCAYHRGELVWCTFH-NH2
modifications: linker 5-15 via 1,3‑dichloro‑2‑propanone
Turning to B1, the DBC in assay [6] came to 7; in assay [8] it was 2.3; in assay [13], 29.5; in assay [14], 23.1; in assay [15], 23.1; in [16] it was 15.8. Also, the DBC in assay [18] came to 3.4; in [19] it was 31.4; in [20] it was 12.1. Also, the DBC 10% amounted to 4.8 mg/mL in [7]; 4.7 mg/mL in assay [9]; 4.8 mg/mL in assay [10]; 4.9 mg/mL in assay [11]; 4.8 mg/mL in assay [12]; 4.8 mg/mL in assay [17]. For the same molecule, the DBC 10% (% NaOH washing cycle 0) in [7] was determined as 100%; in assay [9], 97.9%; in assay [10], 100%; in assay [11] it was 102%; in assay [12], 100%; in [17] it was 100%.

B2: Peptide b: Fmoc-HN-PEG4-GPDCAYH(Xaa1)… (SEQ ID NO:2, Xaa1 arginine, C-terminus amidated), cysteines cross-linked with thiocarbonyldiimidazole (peptide)
peptide: {Fmoc-PEG4′}-GPDCAYHRGELVWCTFH-NH2
modifications: linker 4-14 via thiocarbonyldiimidazole
Take B2: the Kd in the assay with IgG [21] was 1000 nM.

B3: DCAYH(Xaa1)GELVWCT-NH2 (SEQ ID NO:1, wherein Xaa1 is arginine), N-terminus blocked with biotinylated PEG4, intramolecular S-S bond (peptide)
peptide: {Biotin-PEG4′}-DCAYHRGELVWCT-NH2
modifications: disulfide 2-12 (inferred)
Take B3: the dissociation constant (Kd) was determined as 64.5 nM in the assay with IgG [1] and 54 nM with IgG [2].

B4: GPDCAYH(Xaa1)…-NH2 (SEQ ID NO:2, wherein Xaa1 is arginine), N-terminus blocked with biotinylated PEG4, intramolecular S-S bond (peptide)
peptide: {Biotin-PEG4′}-GPDCAYHRGELVWCTFH-NH2
modifications: disulfide 4-14 (inferred)
Take B4: the Kd with IgG [1] was found to be 10 nM; with IgG [2], 9.1 nM.

B5: GPDCAYH(Xaa1)…-NH2 (SEQ ID NO:2, wherein Xaa1 is leucine), N-terminus blocked with biotinylated PEG4, intramolecular S-S bond (peptide)
peptide: {Biotin-PEG4′}-GPDCAYHLGELVWCTFH-NH2
modifications: disulfide 4-14 (inferred)
As for B5, in the assay with IgG [2], the dissociation constant Kd was determined as 8.1 nM.

B6: GPRCAYH(Xaa1)…-NH2 (SEQ ID NO:4, wherein Xaa1 is arginine), N-terminus blocked with biotinylated PEG4, intramolecular S-S bond (peptide)
peptide: {Biotin-PEG4′}-GPRCAYHRGELVWCSFH-NH2
modifications: disulfide 4-14 (inferred)
For the molecule B6, the Kd worked out at 56 nM with IgG [1] and 42 nM with IgG [2].
